Source: US5804604, “Tat-derived transport polypeptides and fusion proteins” (Biogen, Inc., dated 1998)
Numbering of substitutions follows the chain as printed.

B1: TxHE2CCSS (tat37-72 chemically cross-linked to E2.123CCSS) (other)
chain: MVPDTGNPCHTTKLLHRDSVDSAPILTAFNSSHKGRINCNSNTTPIVHLKGDANTLKSLRYRFKKHSTLYTAVSSTWHWTGHNVKHKSAIVTLTYDSEWQRDQFLSQVKIPKTITVSTGFMSI
peptide: CFITKALGISYGRKKRRQRRRPPQGSQTHQVSLSKQ
modifications: cysteine cross-linked through bismaleimidohexane (BMH) to tat37-72; 1 transport molecule per E2 repressor homodimer; cysteine coupled to bismaleimidohexane (BMH)
B2: HE2.123 (unconjugated E2.123 repressor protein) (other)
chain: B1 chain with S58C, S67C
B3: JB106 (other)
chain: MYGRKKRRQRRRPPDTGNPCHTTKLLHRDSVDSAPILTAFNSSHKGRINCNSNTTPIVHLKGDANTLKCLRYRFKKHCTLYTAVSSTWHWTGHNVKHKSAIVTLTYDSEWQRDQFLSQVKIPKTITVSTGFMSI

Target: full-length HPV-16 E2 protein (E2 transactivator expressed from plasmid pAHE2) (human papillomavirus strain 16 (HPV-16), UniProt P03120)
Test: cell-based or functional assay

| Binder | % repression (E2 repression assay, COS7 cells, without chloroquine) |
| --- | --- |
| B1 | 69.4 % repression |
| B2 | 0.3 % repression |
| B3 | 94.3 % repression |
